Measured values: paper PMC7000712, “A kinetic method for measuring agonist efficacy and ligand bias using high resolution biosensors and a kinetic data analysis framework” (Scientific Reports, 2020)
Blank lines part the entries; values can stand above or below the compound they belong to.

What was measured:
angiotensin AT1 receptor [1] = target: T1, angiotensin AT1 receptor (Homo sapiens, UniProt P30556); test: Arrestin-3 (β-arrestin2) mNeonGreen biosensor recruitment, AT1 receptor, HEK 293 T cells (time course); format: cell-based
T1 construct: The unmodified receptor can be used, providing estimates of authentic rather than forced coupling to arrestin; host or cells: HEK 293 T cells, BacMam transduction, CMV promoter
T1 sequence (P30556 1-359): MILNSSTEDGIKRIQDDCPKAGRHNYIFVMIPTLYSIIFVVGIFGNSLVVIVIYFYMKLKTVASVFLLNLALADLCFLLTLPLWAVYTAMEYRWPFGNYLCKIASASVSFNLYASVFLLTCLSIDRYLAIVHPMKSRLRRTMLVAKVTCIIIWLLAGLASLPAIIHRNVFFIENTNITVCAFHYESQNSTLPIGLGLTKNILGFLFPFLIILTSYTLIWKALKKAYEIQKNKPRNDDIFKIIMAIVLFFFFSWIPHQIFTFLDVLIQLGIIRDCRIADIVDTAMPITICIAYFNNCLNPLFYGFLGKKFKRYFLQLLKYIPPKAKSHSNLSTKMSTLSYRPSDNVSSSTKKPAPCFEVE
Source text: We and others have developed fluorescent biosensors in which intrinsically fluorescent protein sensors have been incorporated. (Three examples used in this study are R-GECO[22] for Ca^2+, Downward DAG for DAG and cADDis for cAMP[21]). The protein sensors have been engineered to be conformationally-sensitive, such that interaction with the signaling molecule of interest changes the optical properties, enabling the interaction to be detected as a change of fluorescence intensity. Since the proteins are intrinsically fluorescent, no chemical tagging or substrate addition is necessary to generate the optical signal. Here this approach was used to develop a biosensor of receptor-arrestin interaction (Fig. 1a).
We used the kτ method to quantify the kinetics of arrestin recruitment of five AT1 receptor ligands with known varying degrees of arrestin recruitment and bias. The method for quantifying kτ is as follows (illustrated schematically in Supplementary Fig. S5). […] From these fits the fitted parameter values were taken for Plateau and kobs. These values were then multiplied together. […] The data were then fit to the sigmoid curve equation, for example the “log(agonist) vs. response–Variable slope” equation in Prism[46]. From this fit kτ was obtained - it is the value of the asymptote. More precisely, kτ is the Plateau x kobs value for a maximally-effective concentration of ligand.
All that is required is a time course of response measurement at a single, maximally-stimulating concentration of ligand (maximally-stimulating at all time points). […] The data were fit to the association exponential equation to determine Plateau and kobs. kτ was then calculated - it is the Plateau multiplied by kobs for a maximally-stimulating concentration of ligand, as explained in the Appendix.
The first biosensors that positioned analyte binding domains in this position used a circularly permuted version of the fluorescent protein, and include the GCaMP and GECO Ca^2+ sensors, the upward and downward DAG sensors, and the caDDis cAMP sensor[21],[22]. More recently it has become clearer that if the termini of the analyte binding domain are close to one another, then the entire binding domain can be inserted into the 7th stave of the fluorescent protein without having to circularly permute the fluorescent protein[60].
HEK 293 T cells were cultured in Eagle’s minimum essential media (EMEM) supplemented with 10% fetal bovine serum (FBS) and penicillin-streptomycin at 37 °C in 5% CO2. For BacMam transduction, cells were resuspended in media at a density of 52,000 cells per 100 μL. […] For each experiment 4.24 × 10^8 viral genes of arrestin virus were added to each well. For multiplex experiments, 4.79 × 10^8 viral genes of the Red DAG sensor or 6.18 × 10^8. Viral genes of the Red cADDis (cAMP) sensor were added with the arrestin sensor. For experiments with the R-GECO sensor, 8.46 × 10^8 viral genes were added to each well. The viruses carrying the AT1 and V2 receptors were added such that 2.12 × 10^8 and 3.04 × 10^8 viral genes went into each well, respectively. For the β2-adrenoceptor experiment, 4.28 × 10^8 viral genes for the receptor and 2.13 × 10^8 viral genes of GPCR kinase 2 were added to each well.

angiotensin AT1 receptor [2] = target: T1, angiotensin AT1 receptor; test: Ca^2+ mobilization, R-GECO sensor, AT1 receptor, HEK 293 T cells; format: cell-based; details: 32 μM; mean kτ of ligand divided by that for AngII
Source text: Biased agonism quantification relates the capacity of a ligand to activate one pathway relative to one or more other pathways[9]–[12]. Numerous methods and scales have been developed and successfully applied[8],[47],[53]–[59]. One approach is to compare ligand efficacy, i.e. the capacity of the agonist-occupied receptor to generate the signal. kτ provides such an efficacy value, being the initial rate of signal generation by the agonist-occupied receptor. Here kτ is used to assess signaling bias of the AT1 receptor ligands described above. […] In this study, G-protein signaling and arrestin recruitment was measured using the same fluorescent biosensor assay modality, enabling near-identical conditions to be employed in comparing the pathways. The Gq pathway was quantified at the level of diacylglycerol using the Red Downward DAG sensor[21] (Fig. 5b), and, one step downstream, Ca^2+ mobilization measured using the R-GECO sensor[22] […]
HEK 293 T cells were cultured in Eagle’s minimum essential media (EMEM) supplemented with 10% fetal bovine serum (FBS) and penicillin-streptomycin at 37 °C in 5% CO2. […] Thirty minutes prior to fluorescence plate reader or imaging experiments, the media in each well was replaced with 150 μL of Dulbecco’s phosphate buffered saline (DPBS) supplemented with Ca^2+ (0.9 mM) and Mg^2+ (0.5 mM). […]

β2-adrenoceptor = test: Arrestin sensor response via the β2-adrenoceptor; format: cell-based; details: 10 μM isoproterenol; cells also transduced with GPCR kinase 2; n = 4; Biotek Synergy Mx
Procedure: HEK 293 T cells were cultured in Eagle’s minimum essential media (EMEM) supplemented with 10% fetal bovine serum (FBS) and penicillin-streptomycin at 37 °C in 5% CO2. For BacMam transduction, cells were resuspended in media at a density of 52,000 cells per 100 μL. […] For each experiment 4.24 × 10^8 viral genes of arrestin virus were added to each well. For multiplex experiments, 4.79 × 10^8 viral genes of the Red DAG sensor or 6.18 × 10^8. Viral genes of the Red cADDis (cAMP) sensor were added with the arrestin sensor. For experiments with the R-GECO sensor, 8.46 × 10^8 viral genes were added to each well. The viruses carrying the AT1 and V2 receptors were added such that 2.12 × 10^8 and 3.04 × 10^8 viral genes went into each well, respectively. For the β2-adrenoceptor experiment, 4.28 × 10^8 viral genes for the receptor and 2.13 × 10^8 viral genes of GPCR kinase 2 were added to each well. The cell/transduction mixture was then seeded into 96-well plates and incubated for ~24 hours at 37 °C in 5% CO2. Thirty minutes prior to fluorescence plate reader or imaging experiments, the media in each well was replaced with 150 μL of Dulbecco’s phosphate buffered saline (DPBS) supplemented with Ca^2+ (0.9 mM) and Mg^2+ (0.5 mM).
Fluorescence plate reader experiments were performed on the BioTek Synergy Mx (BioTek, Winooski, VT) and BMG CLARIOstar (BMG Labtech, Cary, NC) in 96 well plates.

angiotensin AT1 receptor [3] = target: angiotensin AT1 receptor (UniProt P30556)
angiotensin AT1 receptor [4] = target: angiotensin AT1 receptor (UniProt P30556); test: conformation-sensitive fluorescent arrestin biosensor in live cells; as a6, 32 μM SII
angiotensin AT1 receptor [5] = target: angiotensin AT1 receptor (UniProt P30556); test: conformation-sensitive fluorescent arrestin biosensor in live cells; as a6, 32 μM TRV120026
angiotensin AT1 receptor [6] = target: angiotensin AT1 receptor (UniProt P30556); test: conformation-sensitive fluorescent arrestin biosensor in live cells; as a6, 32 μM TRV120045
angiotensin AT1 receptor [7] = target: angiotensin AT1 receptor (UniProt P30556); test: conformation-sensitive fluorescent arrestin biosensor in live cells; as a6, 32 μM TRV120055
angiotensin AT1 receptor [8] = target: angiotensin AT1 receptor (UniProt P30556); test: conformation-sensitive fluorescent arrestin biosensor in live cells; as a1, concentration-response with the agonist SII
angiotensin AT1 receptor [9] = target: angiotensin AT1 receptor (UniProt P30556); test: conformation-sensitive fluorescent arrestin biosensor in live cells; as a1, concentration-response with the agonist TRV026 (TRV120026)
angiotensin AT1 receptor [10] = target: angiotensin AT1 receptor (UniProt P30556); test: conformation-sensitive fluorescent arrestin biosensor in live cells; as a1, concentration-response with the agonist TRV045 (TRV120045)
angiotensin AT1 receptor [11] = target: angiotensin AT1 receptor (UniProt P30556); test: conformation-sensitive fluorescent arrestin biosensor in live cells; as a1, concentration-response with the agonist TRV055 (TRV120055)
angiotensin AT1 receptor [12] = target: angiotensin AT1 receptor (UniProt P30556); test: conformation-sensitive fluorescent arrestin biosensor in live cells; HEK 293 T cells with sensor and AT1 receptor; AngII 10 nM-32 μM; time courses fit to the association exponential, Plateau x kobs against concentration fit to a sigmoid, kτ is its top; DPBS with Ca2+ and Mg2+; Biotek Synergy Mx
angiotensin AT1 receptor [13] = target: angiotensin AT1 receptor (UniProt P30556); test: conformation-sensitive fluorescent arrestin biosensor in live cells; HEK 293 T cells with sensor and AT1 receptor; single maximally-stimulating concentration, 32 μM AngII; time course fit to the association exponential, kτ = Plateau x kobs; ΔF/F normalised to baseline; Biotek Synergy Mx (Fig. 5a) or BMG CLARIOstar (Fig. 1b)
[14] = test system: parathyroid hormone 1 (PTH1) receptor; details: endosomal compartment; cited from earlier work
Source text: The kinetics/dynamics of G-protein-coupled receptor (GPCR) signaling is of increasing interest in elaborating the biology and therapeutic potential of these receptors[1]–[3]. The time frame of GPCR signal transduction is dependent on the signaling pathway, regulation of signaling mechanism, and location of the receptor in the cell (spatiotemporal signaling). Temporal dynamics of signaling are being elucidated and applied to develop new therapeutics. For example, the parathyroid hormone 1 (PTH1) receptor can signal persistently over time after partitioning into the endosomal compartment. Thi ...

Compound: CC[C@H](C)[C@H](NC(=O)[C@@H]1CCCN1C(=O)[C@H](Cc1c[nH]cn1)NC(=O)[C@@H](NC(=O)[C@@H](NC(=O)[C@@H](NC(=O)[C@H](CCCNC(=N)N)NC(=O)CNC)C(C)C)[C@@H](C)CC)[C@@H](C)CC)C(=O)O [SII, [sarcosine^1, Ile^4, Ile^8]AngII]
kτ (% AngII), arrestin (single concentration) (angiotensin AT1 receptor [1]; 32 μM, mean kτ of ligand divided by that for AngII): 49 % AngII
Emax, 1 minute time point (angiotensin AT1 receptor [1]; 1 min (rise phase), sigmoid fit, representative experiments): 64 % Ang II
Emax, 20 minute time point (angiotensin AT1 receptor [1]; 20 min (plateau), sigmoid fit, representative experiments): 88 % Ang II
EC50 (angiotensin AT1 receptor [1]; EC50, 1 minute time point, 1 min (rise phase), sigmoid fit, representative experiments): 620 nM
EC50 (angiotensin AT1 receptor [1]; EC50, 20 minute time point, 20 min (plateau), sigmoid fit, representative experiments): 210 nM
Kd (angiotensin AT1 receptor [1]; calculated from the mean pKA value, L50 of Plateau × kobs vs concentration curve, read-out: KA): 1100 nM
kτ (% AngII), arrestin (concentration-response) (angiotensin AT1 receptor [1]; concentration-response method, mean kτ of ligand divided by that for AngII): 48 % AngII
Emax, kinetic model initial rate (angiotensin AT1 receptor [1]; concentration-response of the initial rate, repeated from Table 1 in Supplementary Table S2): 48 % Ang II
kτ (% AngII), calcium (angiotensin AT1 receptor [2]): 12 % AngII

Compound: CC(C)NCC(O)c1ccc(O)c(O)c1 (stereo not shown) [isoproterenol]
ΔF/F, β2-adrenoceptor (β2-adrenoceptor): 0.84

Compound: parathyroid hormone [PTH]
persistent signaling (in words) [14]: persistent signaling

Results, then the compound that gave them:

KA from the operational model fit of the arrestin sensor concentration-response at the single time point 1 min (angiotensin AT1 receptor [3]): 1200 nM
KA from the operational model fit of the arrestin sensor concentration-response at the single time point 20 min (angiotensin AT1 receptor [3]): 530 nM
Compound: [sarcosine^1, Ile^4, Ile^8]AngII (peptide)

kτ (initial rate of arrestin recruitment) with 32 μM SII (angiotensin AT1 receptor [4]): 0.2 NFU.min^-1
kτ (initial rate of arrestin recruitment) with 32 μM TRV120026 (angiotensin AT1 receptor [5]): 0.25 NFU.min^-1
kτ (initial rate of arrestin recruitment) with 32 μM TRV120045 (angiotensin AT1 receptor [6]): 0.38 NFU.min^-1
kτ (initial rate of arrestin recruitment) with 32 μM TRV120055 (angiotensin AT1 receptor [7]): 0.37 NFU.min^-1
kτ (initial rate of arrestin recruitment) with SII (angiotensin AT1 receptor [8]): 0.2 NFU.min^-1
kτ (initial rate of arrestin recruitment) with TRV026 (angiotensin AT1 receptor [9]): 0.25 NFU.min^-1
kτ (initial rate of arrestin recruitment) with TRV045 (angiotensin AT1 receptor [10]): 0.36 NFU.min^-1
kτ (initial rate of arrestin recruitment) with TRV055 (angiotensin AT1 receptor [11]): 0.38 NFU.min^-1
kτ (initial rate of arrestin recruitment) with AngII (angiotensin AT1 receptor [12]): 0.41 NFU.min^-1
kτ (initial rate of arrestin recruitment) with 32 μM AngII (angiotensin AT1 receptor [13]): 0.4 NFU.min^-1
t1/2 of arrestin recruitment (0.693/kobs) with 32 μM AngII (angiotensin AT1 receptor [13]): 45 s
ΔF/F (fluorescence after agonist divided by baseline) with 32 µM AngII (angiotensin AT1 receptor [13]): 0.56
Compound: arrestin-3 (β-arrestin2) fluorescent biosensor incorporating mNeonGreen (from UniProt P32121 1-409)
